Consider 13 molecules from paper PMC10786891, “Massively parallel profiling of RNA-targeting CRISPR-Cas13d”.

T1: EsCas13d, nuclease-dead (Eubacterium siraeum, UniProt B0MS50, R295A;H300A;R849A;H854A)
T1 sequence: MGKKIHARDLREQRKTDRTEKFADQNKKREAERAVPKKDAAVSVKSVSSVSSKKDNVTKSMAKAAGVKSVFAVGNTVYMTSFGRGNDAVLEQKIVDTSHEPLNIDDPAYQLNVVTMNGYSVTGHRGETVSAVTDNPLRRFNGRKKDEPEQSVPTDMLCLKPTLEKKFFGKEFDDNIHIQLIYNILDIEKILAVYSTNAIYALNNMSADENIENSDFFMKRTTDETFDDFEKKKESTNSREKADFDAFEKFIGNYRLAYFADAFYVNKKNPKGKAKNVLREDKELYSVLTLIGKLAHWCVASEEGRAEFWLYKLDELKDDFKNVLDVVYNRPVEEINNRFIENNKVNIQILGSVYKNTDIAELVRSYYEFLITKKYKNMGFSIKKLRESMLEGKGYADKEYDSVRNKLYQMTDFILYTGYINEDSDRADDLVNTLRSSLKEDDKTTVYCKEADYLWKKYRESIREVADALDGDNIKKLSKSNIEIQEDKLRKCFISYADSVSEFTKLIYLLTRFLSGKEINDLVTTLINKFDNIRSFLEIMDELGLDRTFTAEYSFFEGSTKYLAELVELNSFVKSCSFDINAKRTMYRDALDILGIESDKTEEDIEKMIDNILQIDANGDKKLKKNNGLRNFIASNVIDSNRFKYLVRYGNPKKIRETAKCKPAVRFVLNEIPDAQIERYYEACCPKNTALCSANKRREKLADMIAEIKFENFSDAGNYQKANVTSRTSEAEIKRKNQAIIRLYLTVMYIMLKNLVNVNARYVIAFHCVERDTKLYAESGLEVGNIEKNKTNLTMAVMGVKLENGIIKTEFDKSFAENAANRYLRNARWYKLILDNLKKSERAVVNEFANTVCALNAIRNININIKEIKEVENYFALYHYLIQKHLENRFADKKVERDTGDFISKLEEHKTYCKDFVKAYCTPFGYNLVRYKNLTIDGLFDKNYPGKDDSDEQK

B1: target 1 MT 5'PFS GAC 3'PFS UCA (mixed)
RNA 1: CACCCGUGCAAAAAUGCAGGGGUCUAAAACUGAGCGGAUAACCUCUCUAUGG
RNA 2: GGGAAUGGAUCCACAUCUACGAAUUCGACCCAUAGAGAGGUUAUCCGCUCAUCAAGAUCGGAAGAGCACACGU
B2: target 1 MT 5'PFS CCG 3'PFS UAC (mixed)
RNA 1: CACCCGUGCAAAAAUGCAGGGGUCUAAAACUGAGCGGAUAACCUCUCUAUGG
RNA 2: GGGAAUGGAUCCACAUCUACGAAUUCCCGCCAUAGAGAGGUUAUCCGCUCAUACAGAUCGGAAGAGCACACGU
B3: target 1 MT 5'PFS GUC 3'PFS AAG (mixed)
RNA 1: CACCCGUGCAAAAAUGCAGGGGUCUAAAACUGAGCGGAUAACCUCUCUAUGG
RNA 2: GGGAAUGGAUCCACAUCUACGAAUUCGUCCCAUAGAGAGGUUAUCCGCUCAAAGAGAUCGGAAGAGCACACGU
B4: target 1 MT 5'PFS CCG 3'PFS UAU (mixed)
RNA 1: CACCCGUGCAAAAAUGCAGGGGUCUAAAACUGAGCGGAUAACCUCUCUAUGG
RNA 2: GGGAAUGGAUCCACAUCUACGAAUUCCCGCCAUAGAGAGGUUAUCCGCUCAUAUAGAUCGGAAGAGCACACGU
B5: target 1 MT 5'PFS GUC 3'PFS UCU (mixed)
RNA 1: CACCCGUGCAAAAAUGCAGGGGUCUAAAACUGAGCGGAUAACCUCUCUAUGG
RNA 2: GGGAAUGGAUCCACAUCUACGAAUUCGUCCCAUAGAGAGGUUAUCCGCUCAUCUAGAUCGGAAGAGCACACGU
B6: target 1 MT 5'PFS UUA 3'PFS AGU (mixed)
RNA 1: CACCCGUGCAAAAAUGCAGGGGUCUAAAACUGAGCGGAUAACCUCUCUAUGG
RNA 2: GGGAAUGGAUCCACAUCUACGAAUUCUUACCAUAGAGAGGUUAUCCGCUCAAGUAGAUCGGAAGAGCACACGU
B7: target 1 MT 5'PFS GUC 3'PFS UCC (mixed)
RNA 1: CACCCGUGCAAAAAUGCAGGGGUCUAAAACUGAGCGGAUAACCUCUCUAUGG
RNA 2: GGGAAUGGAUCCACAUCUACGAAUUCGUCCCAUAGAGAGGUUAUCCGCUCAUCCAGAUCGGAAGAGCACACGU
B8: target 1 MT 5'PFS CUC 3'PFS UAA (mixed)
RNA 1: CACCCGUGCAAAAAUGCAGGGGUCUAAAACUGAGCGGAUAACCUCUCUAUGG
RNA 2: GGGAAUGGAUCCACAUCUACGAAUUCCUCCCAUAGAGAGGUUAUCCGCUCAUAAAGAUCGGAAGAGCACACGU
B9: target 1 MT 5'PFS CCG 3'PFS UAA (mixed)
RNA 1: CACCCGUGCAAAAAUGCAGGGGUCUAAAACUGAGCGGAUAACCUCUCUAUGG
RNA 2: GGGAAUGGAUCCACAUCUACGAAUUCCCGCCAUAGAGAGGUUAUCCGCUCAUAAAGAUCGGAAGAGCACACGU
B10: target 1 MT 5'PFS CCG 3'PFS UAG (mixed)
RNA 1: CACCCGUGCAAAAAUGCAGGGGUCUAAAACUGAGCGGAUAACCUCUCUAUGG
RNA 2: GGGAAUGGAUCCACAUCUACGAAUUCCCGCCAUAGAGAGGUUAUCCGCUCAUAGAGAUCGGAAGAGCACACGU
B11: target 1 MT 5'PFS GUC 3'PFS AAA (mixed)
RNA 1: CACCCGUGCAAAAAUGCAGGGGUCUAAAACUGAGCGGAUAACCUCUCUAUGG
RNA 2: GGGAAUGGAUCCACAUCUACGAAUUCGUCCCAUAGAGAGGUUAUCCGCUCAAAAAGAUCGGAAGAGCACACGU
B12: target 1 insA 3' of 4,insU 3' of 4 (mixed)
RNA 1: CACCCGUGCAAAAAUGCAGGGGUCUAAAACUGAGCGGAUAACCUCUCUAUGG
RNA 2: GGGAAUGGAUCCACAUCUACGAAUUCGUACCAUAGAGAGGUUAUCCGCAUUCACCGAGAUCGGAAGAGCACACGU
B13: target 1 MT 5'PFS UAA 3'PFS ACU (mixed)
RNA 1: CACCCGUGCAAAAAUGCAGGGGUCUAAAACUGAGCGGAUAACCUCUCUAUGG
RNA 2: GGGAAUGGAUCCACAUCUACGAAUUCUAACCAUAGAGAGGUUAUCCGCUCAACUAGAUCGGAAGAGCACACGU

For this series, the target named is T1, EsCas13d, nuclease-dead. Description: crRNA (strand 1, pre-loaded); Mg2+; 40 mM Tris-HCl pH 7.5, 150 mM NaCl, 6 mM MgCl2, 1 mM DTT, 0.1% Tween-20, 0.2 mg/ml BSA; 25 C; 10 min per concentration, then washed. As to conditions: tags: His6-TwinStrep-SUMO cleaved; N-terminal SNAP kept (SNAP-Surface 488); label: 3' end held by stalled T7 RNA polymerase.
Usually Kd stands for the constant that tells how readily two partners part at equilibrium. The molecule B1 showed a Kd of 16.6 ± 3.5 nM.

The molecule B2 came in with a dissociation constant Kd of around 2.85 nM.

B3 showed a Kd of 20.5 ± 5.5 nM.

In the case of B4, the affinity, expressed as Kd, was 3.2 ± 1 nM.

Take B5: the Kd came to 16.1 ± 3.15 nM.

Molecule B6 came in with a Kd of 74.5 ± 29 nM.

With B7, the Kd turned out to be 11.2 ± 3.1 nM.

Molecule B8 came in with a Kd of 59 ± 25 nM.

B9 had a Kd of 14.2 ± 4.6 nM.

As to B10, the Kd was determined as 3.35 ± 0.595 nM. This Kd is about 4.2-fold lower than that of the molecule before.

Consider B11, for which the Kd turned out to be 38 ± 8 nM.

The molecule B12 returned a dissociation constant (Kd) of 12.4 ± 1.6 nM.

For B13, the Kd amounted to 29 ± 7 nM.
